Earlier results, collected in patent US11590205B2, “Methods for producing stable therapeutic glucagon formulations in aprotic polar solvents” (Xeris Pharmaceuticals, Inc., priority 2015, dated 2023).

Conditions: aqueous

In the case of glucagon, the “solubility at neutral pH” value is given as “essentially insoluble”.
